Assay: yeast display, Sf9 membrane polyspecificity reagent, FACS + sequencing; frameworks hold sequencing errors
How it was run: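 Galactose-induced (36–48 hours) yeast carrying a synthetic nanobody display library were exposed to 10% biotinylated, detergent-solubilized Sf9 membrane reagent at 4 °C for 1 hour. FACS followed streptavidin microbead enrichment, using low and high (top ~1%) gates for expression (anti-HA) and reagent binding (streptavidin). Colony PCR, MiSeq 2 × 250 sequencing and CDR-length filtering followed. Labels for polyreactivity reflect the gate of origin.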

Row | Sequence | polyreactivity (PSR sort gate)
1 | QVQLVESGGGLVQAGGSLRLSCAASGFTFGSYAMGWYRQAPGKERELVAAITYSGSRTYYADSVKGRFTISRDNAKNTVYLQMNSLKPEDTAVYYCAAVTHYGFDYWGQGTQVTVSS | high polyreactivity
2 | QVQLVESGGGLVQAGGSLRLSCAASGFTFGSYARGWYRQAPGKERELVAAISWGGGSTYYADSVKGRFTISRDNAKNTVYLQMNSLKPEDTAVYYCNADAISSFGYWGQGTQVTVSS | high polyreactivity
3 | QVQLVESGGGLVQAGGSLRLSCAASGFTFGSYVMGWYRQAPGKERELVADISIRGGSTYYADSVKGRFTISRDNAKNTVYLQMNSLKPEDTAVYYCNADPAFYYWEGIVGGADYDYWGQGTQVTVSS | low polyreactivity
4 | QVQLVESGGGLVQAGGSLRLSCAASGFTFGTNAMGWYRQAPGKERELVATISARGARTNYADSVKGRFTISRDNAKNTVYLQMNSLKPEDTAVYYCAADPGPHRYSYDYWGQGTQVTVSS | high polyreactivity
5 | QVQLVESGGGLVQAGGSLRLSCAASGFTFGTNAMGWYSQAPGKERELVAAISGRVGSTYYADSVKGRFTISRDNAKNTVYFLMNSLKPEDTAVYYCAADTWKTWSPYLYYTYDSWGQGTQVTVSS | low polyreactivity
6 | QVQLVESGGGLVQAGGSLRLSCAASGFTFGTYAMGWYRQAPGKERELVAAINGNGGSTYYADSVKGRFTISRDNAKNTVYLQMNSLKPEDTAVYYCAAARRSGSTRRDYWGQGTQVTVSS | high polyreactivity
7 | QVQLVESGGGLVQAGGSLRLSCAASGFTFGTYAMGWYRQAPGKERELVARITSGGRTNYADSVKGRFTISRDNAKNTVYLQMNSLKPEDTAVYYCNAVNGYYWGSRFDYWGQGTQVTVSS | high polyreactivity
8 | QVQLVESGGGLVQAGGSLRLSCAASGFTFGVNAMGWYRQAPGKERELVAAISRSGGSTYYADSVKGRFTISRDNAKNTVYLEMNSLKPEDTAVYYCNKAYHRRDSEFGYWGQGTQVTVSS | high polyreactivity
9 | QVQLVESGGGLVQAGGSLRLSCAASGFTFGVYAMGWYRQAPGKERELVAAISRSSGRTYYADSVKGRFTISRDNAKNTVYLQMNSLKPEDTAVYYCAARGYTLSYVDMYYWGQGTQVTVSS | high polyreactivity
10 | QVQLVESGGGLVQAGGSLRLSCAASGFTFGVYAMGWYRQAPGKERELVAAISSTGGSTYYADSVKGRFRISRDNAKNTVYLQMKSLKPEDTAVYYCAADPYPEYIRYLPGVVYWGQGTQVTVSS | low polyreactivity
11 | QVQLVESGGGLVQAGGSLRLSCAASGFTFGWYAMGWYRQAPGKERELVAAISWSGGSTYYADSVKGRFTISRDNAKKTVYLQMNSLKPEDTAVYYCAAYPAYGGDYWGQGTQVTVSS | high polyreactivity
12 | QVQLVESGGGLVQAGGSLRLSCAASGFTFGWYDMGWYRQAPGKERELVASISWSGSSTYYADSVKGRFTISRDNAKNTVYLQLNSLKPEDTAVYYCNDVSVDYVNWYWYDYWGQGTQVTVSS | high polyreactivity
13 | QVQLVESGGGLVQAGGSLRLSCAASGFTFGYNAMGWYRQAPGKERELVAVITQSGGRTYYADSVKGRFTISRDNAKNTVYLQMISLKPEDTAVYYCNKVPRVYGYVKGSDYWGQGTQVTVSS | high polyreactivity
14 | QVQLVESGGGLVQAGGSLRLSCAASGFTFGYYAMGWYRQAPGKERELVAAINWSGGRTYYADSVKGRFTISRDNAMNTVYLQMNRLKPEDTAVYYCAASSRTKRYYWGQGTQVTVSS | high polyreactivity
15 | QVQLVESGGGLVQAGGSLRLSCAASGFTFGYYAMGWYRQAPGKERELVAAISSSGGSTYYADSVKGRFTLSRDNAKNTVYLQMNSLKPEDTAVYYCAVVVFSRVYRYFTSDYWGQGTQVTVSS | high polyreactivity
16 | QVQLVESGGGLVQAGGSLRLSCAASGFTFGYYAMGWYRQAPGKERELVAGISRGGRTNYADSVKGRFTISRDNAKNTVYLQMNRLIPEDTAVFYCAARVVLSPGGYGYWGQGTQVTVSS | high polyreactivity
17 | QVQLVESGGGLVQAGGSLRLSCAASGFTFGYYAMGWYRQATGKERELVATITGSGVRTYYADSLKGRFTISRDNAKNSVYLQMNSLKPEDTAVYYCNKVFSIPWQGVRFDYWGQGTQVTVSS | high polyreactivity
18 | QVQLVESGGGLVQAGGSLRLSCAASGFTFGYYTMGWYRQAPGKERELVAAISSSGGRTYYADSVKGRFTISRDNAKNTVYLQMNSLKPEDTAVYYCAARARWAGLRYTRYYYWGQGTQVTVSS | high polyreactivity
19 | QVQLVESGGGLVQAGGSLRLSCAASGFTFHLYAMGWYRQAPRKERELVAAISQSGDSTYYADTVKGRFTISRDNAKNTFYLQMNSLKPEDTAVYYFNADNDCVVWTYPFDFDYWGQGTQVTVSS | low polyreactivity
20 | QVQLVESGGGLVQAGGSLRLSCAASGFTFHYNAMGWYRQAPGKEREFVAAISGSGDRTYYADSVKGRFTISRDNAKNTVYLQMNSLKPEDTAVYYCATSVRQNYFYSYDYWGQGTQVTVSS | high polyreactivity
21 | QVQLVESGGGLVQAGGSLRLSCAASGFTFHYYAMGWYRPAPGKERELVAAISRGGGNTYYADSVKGRFTISRDNAKNTVYLQMNSLKPEDTAVYYCAADSKYRFSHGLDYWGQGTQVTVSS | high polyreactivity
22 | QVQLVESGGGLVQAGGSLRLSCAASGFTFHYYAMGWYRQAPGKERELVAAISWSSGRTYYADSVKGRFTISRDNAKNTVYLQMNSLKPEDTAVYYCAASSYNRRDYWGQGTQVTVSS | high polyreactivity

Row | Sequence | polyreactivity (PSR sort gate)
23 | QVQLVESGGGLVQAGGSLRLSCAASGFTFIDYAMGWYRQAPGKERELVAAISKRGGSTYYADSVKGRFTISRDNAKNSVYLQMNSLKPEDTAVYYCNAKAYHQGYLTRDDYWGQGTQVTVSS | high polyreactivity
24 | QVQLVESGGGLVQAGGSLRLSCAASGFTFIKYAMGWYRQAPGKEREFDATISWNGGNTYYADSVKGRFTISRDKAKNTVYLQMNSLKPEDTAVYYCAARVKYRTRGGTVVSYDYWGQGTQVTVSS | high polyreactivity
25 | QVQLVESGGGLVQAGGSLRLSCAASGFTFILYAMGWYRQAPGKERELVAAITTSGGRTYYADSVKGRFTISRDTAKNTVYLQMNSLKPEDTAVYYCNARTTPKERDYWGQGTQVTVSS | high polyreactivity
26 | QVQLVESGGGLVQAGGSLRLSCAASGFTFIPNAMGWYRQATGKERELVAAISTGGSTYYADSVKGRFTISRDNAKNTVSLQMNSLKPEDTAVYYCAAGILDLKLYFSSYDYWGQGTQVTVSS | low polyreactivity
27 | QVQLVESGGGLVQAGGSLRLSCAASGFTFIPYAMGWYRQAPGKERELVASITYSGGRTYYADSVKGRFTISRDNAKNTVYLQMNSLKPEDTAVYYCNARSWGGYYHWGQGTQVTVSS | high polyreactivity
28 | QVQLVESGGGLVQAGGSLRLSCAASGFTFIQYDMGWYRLAPGKERELVAAISSSGGSTYYADSVKGRFTISRDNAKNTVYLQMNSLKPEDTAVYNCAADPWVRLEYDYWGQGTQVTVSS | low polyreactivity
29 | QVQLVESGGGLVQAGGSLRLSCAASGFTFIRYAMGCYRQAPGKERELVAAIRGTGTSTYYADSVKGRFTISRDNAKNTVYLQMNSLKPEDTAVYYCNKVAGRSPYTRYDYWGQGTQVTVSS | low polyreactivity
30 | QVQLVESGGGLVQAGGSLRLSCAASGFTFIRYAMGWYRQAPGKERELVASISNRGGRTYYADSVKGRFTISRDNAKNTVYLQMNSLKPEDTAVYYCAAGYSYAQYSYPFLSFAFGYWGQGTQVTVSS | high polyreactivity
31 | QVQLVESGGGLVQAGGSLRLSCAASGFTFIRYAMGWYRQAPGKERELVATISRSGGRTYYADSVKGRFTISRDNAKNTVYLQMNSLKPEDTAVYYCNAEAIVLNGGGYWGQGTQVTVSS | high polyreactivity
32 | QVQLVESGGGLVQAGGSLRLSCAASGFTFISNAMGWYRQAPGKERELVAAISSSGGRTYYADSVKGRFTISRDNAKNTVYLQMNRLKPEDTAVYYCNADRSLLYSRKIEYDYWGQGTQVTVSS | low polyreactivity
33 | QVQLVESGGGLVQAGGSLRLSCAASGFTFIYYAMGWSRQAPGKERELVAAIRWSGGSTYYADSVKGRFTISRDNAKNTVYLQMNSLNPEDTAVYYCAKGGPHRGTGLNDYWGQGTQVTVSS | high polyreactivity
34 | QVQLVESGGGLVQAGGSLRLSCAASGFTFIYYAMGWYRQAPGKERELVAAISKRGGSTYYADSVKGRFTISRDTAKNTVYLQMYSLKPEDTAVYYCAPAFGQRRYDYWGQGTQVTVSS | high polyreactivity
35 | QVQLVESGGGLVQAGGSLRLSCAASGFTFIYYAMGWYRQAPGTERELVAAISTSGDSTYYADSVKGRFTISRDNAKNSVYLQMNSLKPEDTAVYYCNADWYPYLHEYDYWGQGTQVTVSS | low polyreactivity
36 | QVQLVESGGGLVQAGGSLRLSCAASGFTFIYYTMGWYRQAPGKEREFVAAISWGGSTYYADSVKGRFTISRDNAKITVYLLMNSLKPEDTAVYYCNAVSAVAYTRFVYWGQGTQVTVSS | high polyreactivity
37 | QVQLVESGGGLVQAGGSLRLSCAASGFTFKAYAMGWYRQAPGKERELVAAISNSGGTTYYADSVKGRFTISRDNAKNTVYLQMNSLKPEDTAVYYCAAYQYYIPKMYYWGQGTQVTVSS | high polyreactivity
38 | QVQLVESGGGLVQAGGSLRLSCAASGFTFKGNAMGWYRQAPGKESELVAGISRSGRTYYADSVKGRFTISRDNAKNSVYLQMNSLKPEDTAVYYCNARNQGWASLPTMGYWGQGTQVTVSS | high polyreactivity
39 | QVQLVESGGGLVQAGGSLRLSCAASGFTFKNYAMGWYRQAPGKEREFVATISSRGGSTYYADSVKGRFTISRDNAKNTVYLQMNSLKPEDPAVYYCAARYFSYGRSRQRHYYWGQGTQVTVSS | high polyreactivity
40 | QVQLVESGGGLVQAGGSLRLSCAASGFTFKNYAMGWYRQAPGKEREFVATISSRGGSTYYADSVKGRFTISRDNAKNTVYLQMNSLKPEDTAVYYCATSRYLSRSSEYGYWGQGTQVTVSS | high polyreactivity
41 | QVQLVESGGGLVQAGGSLRLSCAASGFTFKQNAMGWYRQAPGKERELVAAISSSGRTNYADSVKGRFTISRDNAKNTVYLQMNSLKPEDTAVYYCAAATYNAYGRRSRYYHGYNSWGQGTQVTVSS | high polyreactivity
42 | QVQLVESGGGLVQAGGSLRLSCAASGFTFKQNAMGWYRQAPGKERELVAAITRTGASTYYADSVKGRFTISRDNAKNTVYLQMNSLKPEDTAVYYCNAARRGSAYDYWGQGTQVTVSS | high polyreactivity
43 | QVQLVESGGGLVQAGGSLRLSCAASGFTFKQYGMGWYRQAPGKERELVASISYRGGSTHYADSVKGRFTISRDNAKNTVYLQMNSLKPEDTAVYYCAARVTSRTSIKGDYWGQGTQVTVSS | low polyreactivity

— the nanobody polyreactivity screen of Harvey et al. (2022)
